No end group written: not given here.

The assay addresses T1, Peptide 29 (Pep29) (Plasmodium falciparum 3D7, also: biotin, position not given here).
T1 chain: NANPNANPNANPNAN
The assay is described as follows: BLI. A general note: Biolayer interferometry detects binding as a change in optical thickness at a sensor tip.

B1: CIS43_Var11 Fab (Fab, V domains shown)
VH: QRQLVQSGAEVKKPGASVKVSCKASGYTFTSYAIHWVRQAPGQRLEWMGWIKAGNGNTRYSQKFQDRVTITRDTSTTTAYMELSSLRSEDTAVYYCALLTVLTPDDAFDIWGQGTMVTVSS
VL: not shown
For B1, the binding result is “binds”.

B2: CIS43_Var18 Fab (Fab, V domains shown)
VH: QRQLVQSGAEVKKPGASVKVSCKASGYTFTSYAIHWVRQAPGQRLEWMGWIKAGNGNTRYSQKFQDRVTITRDTSTTTAYMELSSLRSEDTAVYYCVLLTVLTPDDAFDIWGQGTMVTVSS
VL: not shown
Take B2: the binding result was “binds”.
